Test results from publication PMC10415141 (Nucleic Acids Research, 2023).

Molecular target: T1, human MCM8 (HsMCM8), wild type, N-terminal StrepII tag and TEV site (human, UniProt Q9UJA3 1-840)
T1 sequence (looked up): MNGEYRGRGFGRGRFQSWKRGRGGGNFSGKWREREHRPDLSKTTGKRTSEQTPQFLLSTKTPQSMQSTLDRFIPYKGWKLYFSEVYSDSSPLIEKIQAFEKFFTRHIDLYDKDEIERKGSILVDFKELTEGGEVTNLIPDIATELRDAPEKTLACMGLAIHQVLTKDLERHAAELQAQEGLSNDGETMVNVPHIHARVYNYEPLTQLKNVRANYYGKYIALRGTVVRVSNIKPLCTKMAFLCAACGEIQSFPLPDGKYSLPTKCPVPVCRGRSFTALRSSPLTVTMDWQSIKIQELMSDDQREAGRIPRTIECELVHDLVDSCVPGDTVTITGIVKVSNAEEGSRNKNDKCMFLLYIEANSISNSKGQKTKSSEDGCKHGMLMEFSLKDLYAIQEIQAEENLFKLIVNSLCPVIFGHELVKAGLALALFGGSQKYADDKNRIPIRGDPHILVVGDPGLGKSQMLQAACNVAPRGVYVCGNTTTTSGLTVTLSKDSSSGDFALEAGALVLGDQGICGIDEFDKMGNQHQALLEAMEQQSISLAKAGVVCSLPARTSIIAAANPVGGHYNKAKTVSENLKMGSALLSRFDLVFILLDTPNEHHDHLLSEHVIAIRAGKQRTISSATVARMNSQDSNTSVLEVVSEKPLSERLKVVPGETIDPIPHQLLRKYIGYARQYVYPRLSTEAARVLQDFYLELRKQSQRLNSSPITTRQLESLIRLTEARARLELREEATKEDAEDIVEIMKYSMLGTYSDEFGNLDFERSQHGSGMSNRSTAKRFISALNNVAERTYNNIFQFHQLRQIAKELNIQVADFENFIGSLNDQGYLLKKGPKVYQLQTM
Test: SEC

- stoichiometry N: 1
B1: human MCM9 truncated to the first 680 amino acids (MCM9^680), wild type, N-terminal 6xHis tag (domain or fragment)
chain: not shown
